Common to all, as to assay type: in vivo, rat
In assay [1] the test system is IL-4. Kind of assay: Blocking of M. vaccae effects on hippocampal gene expression by ICM soluble IL-4 receptor alpha. As to conditions: 5 μg, ICM injection after M. vaccae at day −21, −14, −7. Here is the method: FIG. 25 is a schematic depicting the experimental design configured to develop and validate IL-4 blocking methods in the brain. The schematic depicts the timing of M. vaccae or BBS treatment and intra-cisterna magna (ICM) injections containing soluble IL-4 receptor alpha or vehicle followed by tissue collection and analysis.
FIG. 26A-C show rtPCR detection in collection tissue samples after ICM injections for IL-4 (A); CD200R1 (B); and CD206 (C).
In this embodiment, rats were administered M. vaccae or BBC (at day −21, −14, and −7) and then administered 5 μg of soluble IL-4 receptor alpha or a control vehicle.

Assay [2] relates to Cd200r1. Description: Hippocampal Cd200r1 mRNA expression (real time RT-PCR). As to conditions: 100 ng i.c.m. Here is the method: (§1) Animals: Adult male Sprague-Dawley rats (60-90 d old) were pair-housed with food and water available ad libitum. The colony was maintained at 22° C. on a 12 h light/dark cycle (lights on at 07:00 h).
(§2) M. vaccae treatment: M. vaccae is a saprophytic environmental mycobacterium, which we have used previously to mitigate stress-induced anxiety-like behavior and peripheral proinflammatory responses. Briefly, whole heat-killed M. vaccae (strain NCTC 11659, batch ENG 1; Bio Elpida; 10 mg/ml) was suspended in sterile borate-buffered saline (BBS) to yield a final concentration of 1 mg/ml. Sterile BBS served as the vehicle control. Consistent with our prior work with M. vaccae, experimental animals received 3× subcutaneous (s.c.) immunizations with 0.1 mg whole heat-killed M. vaccae suspension (0.1 ml) or vehicle (0.1 ml). Injections occurred at −21 d, −14 d and −7 d prior to stress exposure. FIG. 5 provides a timeline of M. vaccae treatment relative to stress exposure, behavioral testing and tissue/microglia collection.
(§3) Recombinant rat IL4 (rIL4) treatment: Vehicle (sterile 1× PBS+0.1% BSA) or rIL4 (100 ng dissolved in vehicle; R & D Systems) was injected intra-cisterna magna (i.c.m.; 5 μl total volume). Two and 24 h post-injection, hippocampus was collected for gene expression analysis of IL4-sensitive target genes. […]
In general terms: In qPCR the cycle at which signal appears reflects the starting amount.

The subject of assay [3] is Mrc1. Kind of assay: Hippocampal Mrc1 mRNA expression (real time RT-PCR). As to conditions: 100 ng i.c.m., 2 h post-injection. Here is the method:
as §1, §2, §3

Assay [4] relates to Cd200. Description: Hippocampal Cd200 mRNA expression (real time RT-PCR). As to conditions: 100 ng i.c.m., 2 h and 24 h post-injection. Here is the method: as §1, §2, §3

Turning to “soluble IL-4 receptor alpha: soluble form of IL-4 receptor alpha, can inhibit IL4-mediated cell proliferation; ICM injection”, in assay [1], the “Effect of M. vaccae administration on hippocampal gene expression” value is given as “blocked”.

B1: rIL4: Recombinant rat IL4 (R & D Systems), injected intra-cisterna magna (protein, UniProt P20096 25-147, looked up)
Interleukin-4: CNDSPLREIINTLNQVTEKGTPCTEMFVPDVLTATRNTTENELICRASRVLRKFYFPRDVPPCLKNKSGVLGELRKLCRGVSGLNSLRSCTVNESTLTTLKDFLESLKSILRGKYLQSCTSMS
As for B1, the “Cd200r1 expression in hippocampus” value in assay [2] (2 h post-injection) and in assay [2] (24 h post-injection) was “significant increase” each time. The “Mrc1 expression in hippocampus” value in assay [3] is listed as “significant increase”. Moreover, in assay [4], the “Cd200 expression in hippocampus” value is on record as “failed to significantly alter”.

The record behind these values is patent publication US11904007B2, “Protection from stress, anxiety, neuroinflammation, and cognitive dysfunction” (The Regents of the University of Colorado, a body corporate, priority 2018, dated 2024).
